# Reference: the DeepSol protein solubility set
# Test: soluble on expression in E. coli; label from the status in PepcDB or PDB records
row,Sequence,soluble on expression in E. coli
1,MAHHHHHHPPKRAALIQNLRDSYTETSSFAVIEEWAAGTLQEIEGIAKAAVEAHATIRNSTYGRAQAEKSPEQLLGVLQRYQDLCHNVYCQAETIRTVIAIRIPEHKEADNLGVAVQHAVLKVIDELEIKTLGSGEKSGSGGAPTPIGMYALREYLSARSTVEDKLLGSVDAESGKTKGGSQSPSLLLELRQIDADFMLKVELATTHLSTMVRAVINAYLLNWKKLIQPRGGHLDVLYR,soluble
2,MIRKNKWLRFQTVCRYIPLSLKNHNRLVIFVCQRIEWRYIFSTNTGHPLKNTCEMTGTDFSTDGLMRRYVTGGNNQWHTVASLHMTIMMNRIGTVADRQPKARKVKHGEMTLEHHHHHH,not soluble
3,GSHMARGKLKAPKWPILKNLELLQAQNYSRNIKTFPYKELNKSMYYDKWVCMCRCEDGALHFTQLKDSKTITTITTPNPRTGGEHPAIISRGPCNRLLLLYPGNQITILDSKTNKVLREIEVDSANEIIYMYGHNEVNTEYFIWADNRGTIGFQSYEDDSQYIVHSAKSDVEYSSGVLHKDSLLLALYSPDGILDVYNLSSPDQASSRFPVDEEAKIKEVKFADNGYWMVVECDQTVVCFDLRKDVGTLAYPTYTIPEFKTGTVTYDIDDSGKNMIAYSNESNSLTIYKFDKKTKNWTKDEESALCLQSDTADFTDMDVVCGDGGIAAILKTNDSFNIVALTP,soluble
4,MKTLVVALGGNALLQRGEALTAENQYRNIASAVPALARLARSYRLAIVHGNGPQVGLLALQNLAWKEVEPYPLDVLVAESQGMIGYMLAQSLSAQPQMPPVTTVLTRIEVSPDDPAFLQPEKFIGPVYQPEEQEALEAAYGWQMKRDGKYLRRVVASPQPRKILDSEAIELLLKEGHVVICSGGGGVPVTDDGAGSEAVIDKDLAAALLAEQINADGLVILTDADAVYENWGTPQQRAIRHATPDELAPFAKADGSMGPNVTAVSGYVRSRGKPAWIGALSRIEETLAGEAGTCISL,not soluble
5,MGSDKIHHHHHHMLKRILVIIGLAVLATACSNAPRTVSHQVISENDDIQLTGLINNLEKDNRTGIFHKVRTNRSSALMGDKALASVYNEWVGTRYRMGGTTKRGIDCSAFMQTTFSEVFGIELPRSTAEQRHLGRKINKSELKKGDLVFFRKNNHVGVYIGNNQFMHASTGQGVTISSLDEKYWARTYTQSRRIM,not soluble
6,MSLNAPSNAPWLSHYDEGIPSSLAPYPRVTLPDILREAARKHPEDPALLFLGNTISYGELERESNAFAAALHASEVRKGNRVAVLLPNSPQMIIAEFGIWKAGGIAVMLNPLWTEHELERAIDECEAEIAVVLAPFYEKINHLRSRTSLKTVVITDLHDYFPAAMRNASPANGAVATMLQSSDLRMPAMIESYSGSQTPAVEVSPKDPALFIFSGGTTGKPKCAIGRHEASVMNGMQVDAWFRPVLGSDRVPVMLNLPLHHVYPQVAIIGYGFVTRSPLVLIPDPRDFELLIKTIKQYKVGLLPGIPTLFNALAAHPLLKEAPGSLDSLKLIISAAAPLHNKTRRRFKELTGATIIDAYGLTEAMVSPVCQPLNGIRKNGSVGLPVPDVEMRIVDADTGIEVLPSMEIGEIVIRSPQLMTGYWKNPEETAEVLRDGWLYTGDLGYIDDDGYLYIVDRKKDVIKPSGFQVWPSEVEEVIAMHPAVLETGVAGVPDDYQSEAVKAWVVLHKGHSLDAEQLKNWCRQTLAPYKVPKHIEFCEQLPKSALGKVLRQALVEQHLTSEGHHHHHH,soluble
7,MTQPELTPAQRTEVELLARGRADKSRVLRDLKLPETPEAAHALLLRLGVWDEARTPYADRLRAALNAVELPVPDFDPAEERLDLTHLPTFAIDDEGNQDPDDAVGVEDLGGGLTRLWVHVADVAALVAPDSPLDLEARARGATLYLPDRTIGMLPDELVAKAGLGLHEVSPALSICLDLDPDGNAEAVDVLLTRVKVQRLAYQEAQARLEAGEEPFVTLARLARASRRLREGEGALSIDLPEVRVKADETGASVFPLPKPEMRTVVQECMTLAGWGTAIFADDNEIPLPFATQDYPTREVAGDTLPAMWARRKTLARTRFQPSPGPHHGMGLDLYAQATSPMRRYLDLVVHQQLRAFLAGRDPLSSKVMAAHIAESQMNADATRQAERLSRRHHTLRFIAAQPERVWDAVVVDRRGAQATLLIPDLAFDVQVNTPAAPGTALQVQFADIDLPQMRVRARSVLEHHHHHH,soluble
8,VQERIKACFTESIQTQIAAAEALPDAISRAAMTLVQSLLNGNKILCCGNGTSAANAQHFAASMINRFETERPSLPAIALNTDNVVLTAIANDRLHDEVYAKQVRALGHAGDVLLAISTRGNSRDIVKAVEAAVTRDMTIVALTGYDGGELAGLLGPQDVEIRIPSHRSARIQEMHMLTVNCLCDLIDNTLFPHQDD,soluble
